Test results reported in patent US20120134993A1.

Legend:
[1] = biological target: recombinant human FGF-17 (human) (UniProt O60258); assay: direct binding ELISA, FGF-17 coated, FGFR-Fc titrated with heparin, anti-human Fc-HRP
[2] = biological target: recombinant human FGF-8b (human) (UniProt P55075); assay: direct binding ELISA, FGF-8b coated, FGFR-Fc titrated with heparin, anti-human Fc-HRP
human FGF-9 (human) = human FGF-9 (human) (UniProt P31371); assay: cell-based or functional assay
[3] = biological target: recombinant human FGF-8b (human) (UniProt P55075); assay: cell-based or functional assay
[4] = biological target: recombinant human FGF4 (human) (UniProt P08620); assay: cell-based or functional assay
recombinant human FGF4 (human), sequence (P08620 31-206 limits assumed): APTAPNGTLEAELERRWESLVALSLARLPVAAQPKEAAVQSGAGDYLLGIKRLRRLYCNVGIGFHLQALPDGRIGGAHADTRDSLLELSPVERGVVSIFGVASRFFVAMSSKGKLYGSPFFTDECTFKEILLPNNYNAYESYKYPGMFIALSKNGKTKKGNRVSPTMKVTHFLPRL

[5] = biological target: recombinant human FGF6 (human) (UniProt P10767); assay: cell-based or functional assay
recombinant human FGF6 (human), sequence (P10767 83-208 limits assumed): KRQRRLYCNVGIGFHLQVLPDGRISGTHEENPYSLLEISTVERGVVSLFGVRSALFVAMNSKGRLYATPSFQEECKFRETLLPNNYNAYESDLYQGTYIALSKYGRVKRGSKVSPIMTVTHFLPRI

[6] = biological target: recombinant human FGF2 (human) (UniProt P09038); assay: cell-based or functional assay
recombinant human FGF2 (human), sequence (P09038 143-288 limits assumed): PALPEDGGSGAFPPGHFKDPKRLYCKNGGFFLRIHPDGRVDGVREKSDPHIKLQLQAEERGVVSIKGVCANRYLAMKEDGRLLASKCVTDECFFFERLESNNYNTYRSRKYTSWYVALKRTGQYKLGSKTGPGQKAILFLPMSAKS

[7] = biological target: recombinant human FGF1 (human) (UniProt P05230); assay: cell-based or functional assay
recombinant human FGF1 (human), sequence (P05230 16-155 limits assumed): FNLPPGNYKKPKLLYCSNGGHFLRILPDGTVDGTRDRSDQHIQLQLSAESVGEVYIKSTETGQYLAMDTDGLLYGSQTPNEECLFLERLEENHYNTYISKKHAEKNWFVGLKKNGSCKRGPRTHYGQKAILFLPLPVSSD

human VEGF-A (human) = human VEGF-A (human) (UniProt P15692); assay: SPR (Biacore T100), VEGF-A immobilized, 100 nM VEGFR-2-Fc5 injected, 1:1 dissociation fit
human VEGF-A (human), sequence (P15692 other isoform, or with tags, fused parts or gaps limits assumed): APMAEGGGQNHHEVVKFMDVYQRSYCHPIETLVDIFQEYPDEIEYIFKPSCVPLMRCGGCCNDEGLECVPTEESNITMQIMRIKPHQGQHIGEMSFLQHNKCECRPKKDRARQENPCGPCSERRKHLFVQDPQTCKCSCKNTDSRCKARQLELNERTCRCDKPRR

recombinant human FGF-8b (human), sequence (P55075 other isoform, or with tags, fused parts or gaps limits assumed): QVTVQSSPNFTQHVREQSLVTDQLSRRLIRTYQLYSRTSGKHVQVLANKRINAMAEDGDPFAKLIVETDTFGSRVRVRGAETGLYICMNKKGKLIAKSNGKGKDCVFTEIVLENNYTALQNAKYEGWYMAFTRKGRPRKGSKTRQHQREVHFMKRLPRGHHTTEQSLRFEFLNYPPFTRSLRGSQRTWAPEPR
human FGFR1-Fc (R&D Systems), sequence (P11362 22-376): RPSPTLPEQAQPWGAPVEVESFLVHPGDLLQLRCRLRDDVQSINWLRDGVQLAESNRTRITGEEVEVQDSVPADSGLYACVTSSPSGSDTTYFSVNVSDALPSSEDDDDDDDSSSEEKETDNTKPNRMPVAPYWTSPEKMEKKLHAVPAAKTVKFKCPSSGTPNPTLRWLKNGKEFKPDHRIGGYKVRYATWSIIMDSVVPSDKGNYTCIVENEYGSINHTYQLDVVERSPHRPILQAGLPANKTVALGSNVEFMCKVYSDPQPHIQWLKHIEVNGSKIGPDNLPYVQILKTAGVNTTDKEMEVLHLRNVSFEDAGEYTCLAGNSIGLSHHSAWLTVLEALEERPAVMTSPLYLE
recombinant human FGF-17 (human), sequence (O60258 23-216 limits assumed): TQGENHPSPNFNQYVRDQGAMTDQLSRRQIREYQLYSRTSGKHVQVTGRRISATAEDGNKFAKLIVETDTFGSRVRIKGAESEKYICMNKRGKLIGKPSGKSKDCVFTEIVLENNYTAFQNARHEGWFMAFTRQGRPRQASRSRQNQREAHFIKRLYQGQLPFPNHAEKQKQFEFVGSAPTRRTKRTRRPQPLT

IC50 [1] [pM]	IC50 [2] [pM]	Proliferation IC50, FGF-9-stimulated HCO osteoblasts (3H-thymidine) (human FGF-9 (human)) [pM]	Proliferation IC50, FGF8b-stimulated LNCap cells (3H-thymidine) [3] [pM]	IC50, FGF-stimulated HUVEC proliferation (3H-thymidine) [4] [pM]	IC50, FGF-stimulated HUVEC proliferation (3H-thymidine) [5] [pM]	IC50, FGF-stimulated HUVEC proliferation (3H-thymidine) [6] [pM]	IC50, FGF-stimulated HUVEC proliferation (3H-thymidine) [7] [pM]	koff (human VEGF-A (human)) [s⁻¹]	Substance
30100	23400	440	790	1060	9960	5500	530		human FGFR3-Fc (R&D Systems) (from UniProt P22607 23-375) (Fc fusion)
		490	290	480	300	850	420		human FGFR2-Fc (R&D Systems) (from UniProt P21802 22-377) (Fc fusion)
			10						FGFR2alphaIIIc(145-377)(P253R) Fc5, truncated FGFR2-Fc P253R (A2561F) (Fc fusion)
			10						FGFR2alphaIIIc(145-377)(S252W) Fc5, truncated FGFR2-Fc S252W (A2560F) (Fc fusion)
		1100		530	420	920	630		human FGFR1-Fc (R&D Systems) (from UniProt P11362 22-376) (Fc fusion)
								0.0002	VEGFR-2-Fc5 (from UniProt P0DOX5 218-449) (Fc fusion)
			300						FGFR2alphaIIIc(145-377) Fc5, truncated FGFR2-Fc (A2559F) (Fc fusion)
